From patent publication US20130196320A1, “METHOD FOR IMPROVING CLEAVAGE OF DNA BY ENDONUCLEASE SENSITIVE TO METHYLATION” (CELLECTIS, priority 2010, published 2013)
One block for each molecule: values may come before it.

Assays:
[1] = system: XPC4 target locus in 293H cells; assay: Meganuclease-induced mutagenesis at XPC4 target locus by deep sequencing, siRNA targeting DNMT1; assay type: cell-based, human; details: for mutagenesis, PCR fragments carrying a mutation: Empty vector
Method: (§1) The human 293H cells (ATCC) were plated at a density of 1.2×10^6 cells per 10 cm dish in complete medium (DMEM supplemented with 2 mM L-glutamine, penicillin (100 IU/ml), streptomycin (100 μg/ml), amphotericin B (Fongizone: 0.25 μg/ml, Invitrogen-Life Science) and 10% FBS). The next day, cells were transfected with 5 μg of empty vector pCLS003 (SEQ ID NO: 65) and 1 nM or 5 nM of si_DNMT1 composed of mixture of two siRNA DNMT1—1 ([…], SEQ ID NO: 66) and DNMT1—2 ([…], SEQ ID NO: 67) or with si_AS, a siRNA control with no known human target, using Lipofectamine 2000 as transfection reagent (Invitrogen) according to the manufacturer's protocol. The day after, cells were re-platted at the density of 1.2×10^6 cells per 10 cm. 24 hours after, cells were transfected again with 1 nM or 5 nM of siDNMT1 or si_AS in presence of 3 μg of meganuclease expressing vector (pCLS2510; SEQ ID NO: 68) and 2 μg of empty vector or 5 μg of empty vector (SEQ ID NO: 65), with Lipofectamine 2000 transfection reagent (Invitrogen) according to the manufacturer's protocol.
After genomic DNA extraction, the XPC4 target locus was amplified with specific primers flanked by specific adaptator needed for HTS sequencing on the 454 sequencing system (454 Life Sciences)
5,000 to 10,000 sequences per sample were analyzed.

[2] = system: XPC4 target CpG motives in 293H cells; assay: DNA methylation of XPC4 target by bisulfite treatment and sequencing, siRNA targeting DNMT1; assay type: cell-based, human; details: for amount of unmethylated C, % of total: one of the two CpG of XPC4 target; for amount of unmethylated C: the other CpG of XPC4 target
From the text: FIG. 15: Chromatogram. In order to determine the methylation status of the two CpG motives present in the XPC4 target sequence, genomic DNA was extracted, and treated with bisulfite. Bisulfite treatment is based on a chemical reaction of sodium bisulfite with DNA that converts unmethylated cytosines into uracil whereas methylated cytosines remain unchanged. DNA was then amplified by PCR and sequenced. […] For one of the two CpG ([…]; SEQ ID NO: 24) the amount of unmethylated C was estimated to 20 and 30% of total after 1 nM and 5 nM of si_DNMT1, respectively. For the other CpG ([…]; SEQ ID NO: 24) the amount of unmethylated C was estimated to 25 and 50% after 1 nM and 5 nM of si_DNMT1, respectively.
as §1
To assess the level DNA methylation, DNA sequencing was performed after a bisulfite treatment according to the instructions of the manufacturer (EZ DNA methylation-Gold Kit, Zymo Research). After genomic DNA extraction, the XPC4 target locus was amplified by PCR with specific primers

[3] = system: RAG target in human RAG1 gene, 293H cells; assay: Meganuclease-induced mutagenesis assay at RAG recognition site; assay type: cell-based; details: RAG meganuclease
Method: (§2) The human 293H cells (ATCC) were plated at a density of 1.2×10^6 cells per 10 cm dish in complete medium (DMEM supplemented with 2 mM L-glutamine, penicillin (100 IU/ml), streptomycin (100 μg/ml), amphotericin B (Fongizone: 0.25 μg/ml, Invitrogen-Life Science) and 10% FBS). The cells were pre-treated with 5-aza-deoxycytidine at 0.2 μM or 1 μM, 48 hours before transfection and the treatment was maintained 48 hours post-transfection. The medium was changed every day. The cells were transfected with 3 μg of DNA plasmids encoding meganuclease for RAG or 2.5 μg of each monomer CAPNS1 using Lipofectamine 2000 transfection reagent (Invitrogen) according to the manufacturer's protocol.
(§3) The efficiency of the meganuclease to promote mutagenesis at its endogenous recognition site was evaluated by sequencing the DNA surrounding the meganuclease cleavage site. Two days post-transfection, genomic DNA was extracted. 200 ng of genomic DNA were used to amplify (PCR amplification) the endogenous locus surrounding the meganuclease cleavage site. PCR amplification is performed to obtain a fragment flanked by specific adaptor sequences [adaptor A: 5′-[…]-NNNN-3′(SEQ ID NO: 46) and adaptor B, 5′-[…]-3′ (SEQ ID NO: 47)] provided by the company offering sequencing service (GATC Biotech AG, Germany) on the 454 sequencing system (454 Life Sciences). The primers sequences used for PCR amplification were:
RAG_F1: 5′-[…]-NNNN-[…] (SEQ ID NO: 57) and
(§4) RAG_R1: 5′-[…]-[…]-3′ (SEQ ID NO: 58) and CAPNS1_J3: 5′-[…]-NNNN-[…] (SEQ ID NO: 59) and CAPNS1_R3: 5′-[…]-[…]-3′ (SEQ ID NO: 60). Sequences specific to the locus are underlined. The sequence NNNN in primer F1 is a Barcode sequence (Tag) needed to link the sequence with a PCR product. The percentage of PCR fragments carrying insertion or deletion at the meganuclease cleavage site is related to the mutagenesis induced by the meganuclease through NHEJ pathway in a cell population, and therefore correlates with the meganuclease activity at its endogenous recognition site. 5000 to 10000 sequences were analyzed per conditions.

[4] = system: CAPNS1 target in human CAPNS1 gene, 293H cells; assay: Meganuclease-induced mutagenesis assay at CAPNS1 recognition site; assay type: cell-based; details: CAPNS1 meganuclease
Method: as §2, §3, §4

C1221 DNA target = assay: In vitro cleavage assay with C1221 duplex, increasing meganuclease concentration; assay type: biochemical
Method: FIG. 2: In vitro cleavage of unmethylated or methylated C1221 by I-CreI. A constant amount of C1221 (50 nM) was incubated with increasing concentrations of I-CreI (0 to 2 μM) in reaction buffer (10 mM Tris-HCl, 150 mM NaCl, 10 mM MgCl2, pH8) for an hour at 37° C. The reaction was stopped and the remaining uncleaved C1221 was quantify and plotted as function of I-CreI concentration.
FIG. 3: In vitro cleavage of unmethylated or methylated C1221 by I-CreI D75N. 50 nM C1221 containing either 0, 1, 2 or 3 methylated CG was incubated with increasing concentrations of I-CreI D75N (0 to 2 μM) in reaction buffer (10 mM Tris-HCl, 150 mM NaCl, 10 mM MgCl2, pH8) for an hour at 37° C. The reaction was stopped and cleaved and uncleaved C1221 (top and bottom panel respectively) were quantify and plotted as function of I-CreI D75N concentration.
To investigate the influence of C1221 methylation on the nuclease activity of I-CreI, an in vitro cleavage assay with either unmethylated or fully methylated C1221 duplex (SEQ ID NOs: 4-5 and 12-13 respectively) was performed. A constant amount of C1221 duplex (50 nM) was incubated with increasing concentration of I-CreI (0 to 2 μM) in a total volume of 25 μL of reaction buffer (10 mM Tris-HCl, 150 mM NaCl, 10 mM MgCl2, pH8). Cleavage reaction was allowed to proceed 1 hour at 37° C. and then stopped by addition of 5 μL of 6× stop buffer (45% glycerol, 95 mM EDTA, 1.5% (w/v) SDS, 1.5 mg/mL proteinase K and 0.048% (w/v) bromophenol blue) followed by an hour incubation at 37° C. Cleaved and uncleaved DNA products were separated by PAGE using a TGX Any kD precast gel (Bio-Rad), stained with SYBR Green and then quantified using Quantity One software (Bio-Rad).
To investigate the influence of C1221 methylation on the nuclease activity of I-CreI D75N, in vitro cleavage assay with C1221 duplex containing either 0, 1, 2 or 3 methylated CG (SEQ ID NOs: 4-5, 6-7, 8-9, 10-11 respectively) was performed, according to the procedure described for I-CreI wild type.

Molecule: si_DNMT1: mixture of two siRNA DNMT1—1 (SEQ ID NO: 66) and DNMT1—2 (SEQ ID NO: 67) targeting DNMT1 gene (chain 1 ACGGTGCTCATGCTTACAACC; chain 2 CCCAATGAGACTGACATCAAA; mixture of two siRNAs, further chemistry not given here)
mutagenesis, PCR fragments carrying a mutation ([1]; Si_DNMT1 1 nM): 0.022%
mutagenesis, PCR fragments carrying a mutation ([1]; Si_DNMT1 5 nM): 0.055%
mutagenesis ([1]; empty vector, 1 or 5 nM of si_DNMT1): low or absent
amount of unmethylated C, % of total ([2]; 1 nM): 20%
amount of unmethylated C, % of total ([2]; 5 nM): 30%
amount of unmethylated C ([2]; 1 nM): 25%
amount of unmethylated C ([2]; 5 nM): 50%

B1: RAG: engineered single chain meganuclease (SEQ ID NO: 61) designed to cleave a sequence in the human RAG1 gene (protein)
chain: MANTKYNEEFLLYLAGFVDGDGSIIAQINPNQSSKFKHRLRLTFYVTQKTQRRWFLDKLVDEIGVGYVRDSGSVSQYVLSEIKPLHNFLTQLQPFLELKQKQANLVLKIIEQLPSAKESPDKFLEVCTWVDQIAALNDSKTRKTTSETVRAVLDSLSGKKKSSPAAGGSDKYNQALSKYNQALSKYNQALSGGGGSNKKFLLYLAGFVDSDGSIIAQIKPRQSNKFKHQLSLTFAVTQKTQRRWFLDKLVDRIGVGYVYDSGSVSDYRLSEIKPLHNFLTQLQPFLKLKQKQANLVLKIIEQLPSAKESPDKFLEVCTWVDQIAALNDSKTRKTTSETVRAVLDSLSEKKKSSP
mutagenesis, PCR fragments carrying a mutation ([3]; 0 μM 5-aza-2′-deoxycytidine): 0.76% ± 0.02
mutagenesis, PCR fragments carrying a mutation ([3]; 0 μM 5-aza-2′-deoxycytidine, listed as RAG meganuclease): 0.75%±0.02
mutagenesis, PCR fragments carrying a mutation ([3]; 0.2 μM 5-aza-2′-deoxycytidine): 0.71% ± 0.17
mutagenesis, PCR fragments carrying a mutation ([3]; 0.2 μM 5-aza-2′-deoxycytidine, listed as RAG meganuclease): 0.71%±0.17
mutagenesis, PCR fragments carrying a mutation ([3]; 1 μM 5-aza-2′-deoxycytidine): 0.59% ± 0.3
mutagenesis, PCR fragments carrying a mutation ([3]; 1 μM 5-aza-2′-deoxycytidine, listed as RAG meganuclease): 0.59%±0.31

B2: CAPNS1: engineered heterodimer meganuclease (SEQ ID NO: 62+SEQ ID NO: 63) cleaving the 5′ UTR of the human CAPNS1 gene (protein)
chain 1: MANTKYNKEFLLYLAGFVDSDGSIIAQIKPRQSYKFKHQLRLTFYVTQKTQRRWFLDKLVDEIGVGYVEDSGSVSRYVLSEIKPLHNFLTQLQPFLKLKQKQANLVLKIIEQLPSAKESPDKFLEVCTWVDQVAALNDSKTRKTTSETVRAVLDSLSEKKKSSPAAD
chain 2: MANTKYNKEFLLYLAGFVDGDGSIVAQIKPNQRAKFKHQLSLTFQVTQKTQRRWLLDKLVDEIGVGYVQDSGSVSNYRLSEIKPLHNFLTQLQPFLKLKQKQANLVLKIIEQLPSAKESPDKFLEVCTWADQIAALNDSKTRKTTSETVRAVLDSLSEKKKPSPAAD
mutagenesis, PCR fragments carrying a mutation ([4]; 0 μM 5-aza-2′-deoxycytidine): 6.10% ± 0.43
mutagenesis, PCR fragments carrying a mutation ([4]; 0 μM 5-aza-2′-deoxycytidine, listed as CAPNS1 meganuclease): 6.1%±0.43
mutagenesis, PCR fragments carrying a mutation ([4]; 0.2 μM 5-aza-2′-deoxycytidine): 6.55% ± 0.77
mutagenesis, PCR fragments carrying a mutation ([4]; 0.2 μM 5-aza-2′-deoxycytidine, listed as CAPNS1 meganuclease): 6.55%±0.77
mutagenesis, PCR fragments carrying a mutation ([4]; 1 μM 5-aza-2′-deoxycytidine): 4.34% ± 0.95
mutagenesis, PCR fragments carrying a mutation ([4]; 1 μM 5-aza-2′-deoxycytidine, listed as CAPNS1 meganuclease): 4.34%±0.95

EC50 (C1221 DNA target; unmethylated C1221, 1 hour at 37° C., read-out: C50 (concentration of meganuclease needed to cleave 50% of C1221)): 100 to 150 nM
B3: I-CreI D75N: I-CreI D75N meganuclease variant, SEQ ID NO: 22 (protein)
chain: MANTKYNKEFLLYLAGFVDGDGSIIAQIKPNQSYKFKHQLSLAFQVTQKTQRRWFLDKLVDEIGVGYVRDRGSVSDYILSEIKPLHNFLTQLQPFLKLKQKQANLVLKIIWRLPSAKESPDKFLEVCTWVDQIAALNDSKTRKTTSETVRAVLDSLSEKKKSSPAAD
increase of C50 (C1221 DNA target; C1221 with one methyl group on both strand vs unmethylated): about 3 folds
increase of C50 (C1221 DNA target; C1221 with three methyl groups vs unmethylated): more than 10 folds
increase of C50 (C1221 DNA target; C1221 with two methyl groups vs unmethylated): more than 10 folds
meganuclease concentration at which C1221 cleaved product leveled up (C1221 DNA target; unmethylated C1221): about 500 nM
